# Legend:
# [1] = molecular target: T1, human A-beta(1-40) peptide, monomeric (BAM) (human, biotin at the C-terminus in capture ELISA, SPR and TR-FRET; not biotinylated where coated directly (Example 7)); experiment: TR-FRET competition, mean IC50
# T1 construct: synthetic peptide (Anaspec), TFA/HFIP treated to give monomer; also called monomeric A-beta
# [2] = molecular target: T1, human A-beta(1-40) peptide, monomeric …; experiment: TR-FRET competition; labelled competitor not given
binder,measurement,setting,value
"ABII051 (VHH, humanized variant of ABII050) VHH: EVQLLESGGGLVQPGGSLRLSCAASGRTFNNYNMGWFRQAPGKGREFVAAVSRSGVSTYYADSVKGRFTISRDNAKNAVYLQMNSLRPEDTAIYYCGAAYRGTAINVRRSYDSWGQGTLVTVSS",IC50,[1],18 nM
same,IC50,[2],18 nM
"ABII052 (VHH, humanized variant of ABII050) VHH: EVQLLESGGGLVQPGGSLRLSCAASGRTFNNYNMGWFRQAPGKGREFVAAVSRSGVSTYYADSVKGRFTISRDNSKNAVYLQMNSLRPEDTAIYYCGAAYRGTAINVRRSYDSWGQGTLVTVSS",IC50,[1],19 nM
same,IC50,[2],19 nM
"ABII053 (VHH, humanized variant of ABII050) VHH: EVQLLESGGGLVQPGGSLRLSCAASGRTFNNYNMGWFRQAPGKGREFVAAVSRSGVSTYYADSVKGRFTISRDNAKNTVYLQMNSLRPEDTAIYYCGAAYRGTAINVRRSYDSWGQGTLVTVSS",IC50,[1],20 nM
same,IC50,[2],20 nM
"ABII054 (VHH, humanized variant of ABII050) VHH: EVQLLESGGGLVQPGGSLRLSCAASGRTFNNYNMGWFRQAPGKGREFVAAVSRSGVSTYYADSVKGRFTISRDNAKNALYLQMNSLRPEDTAIYYCGAAYRGTAINVRRSYDSWGQGTLVTVSS",IC50,[1],51 nM
same,IC50,[2],51 nM
"ABII055 (VHH, humanized variant of ABII050) VHH: EVQLLESGGGLVQPGGSLRLSCAASGRTFNNYNMGWFRQAPGKGREFVAAVSRSGVSTYYADSVKGRFTISRDNAKNAVYLQMNSLRPEDTAVYYCGAAYRGTAINVRRSYDSWGQGTLVTVSS",IC50,[1],22 nM
same,IC50,[2],22 nM
"ABII056 (VHH, humanized variant of ABII050) VHH: EVQLLESGGGLVQPGGSLRLSCAASGRTFNNYNMGWFRQAPGKGREFVAAVSRSGVSTYYADSVKGRFTISRDNAKNAVYLQMNSLRPEDTAIYYCAAAYRGTAINVRRSYDSWGQGTLVTVSS",IC50,[1],29 nM
same,IC50,[2],29 nM
"ABII057 (VHH, humanized variant of ABII050) VHH: EVQLLESGGGLVQPGGSLRLSCAASGRTFNNYNMGWFRQAPGKGREFVAAVSRSGVSTYYADSVKGRFTISRDNSKNTVYLQMNSLRPEDTAVYYCAAAYRGTAINVRRSYDSWGQGTLVTVSS",IC50,[1],46 nM
same,IC50,[2],46 nM
"ABII058 (VHH, humanized variant of ABII050) VHH: EVQLLESGGGLVQPGGSLRLSCAASGRTFNNYNMGWFRQAPGKGREFVAAVSRSGVSTYYADSVKGRFTISRDNSKNTLYLQMNSLRPEDTAVYYCAAAYRGTAINVRRSYDSWGQGTLVTVSS",IC50,[1],73 nM
same,IC50,[2],73 nM
"ABII060 (VHH, humanized variant of ABII050) VHH: EVQLLESGGGLVQPGGSLRLSCAASGRTFNNYNMGWFRQAPGKGREFVAAVSRSGVSTYYADSVKGRFTISRDNSKNTLYLQMNSLRPEDTAVYYCAAAYRGTAINVRRSYSSWGQGTLVTVSS",IC50,[1],50 nM
same,IC50,[2],50 nM
"ABII061 (VHH, humanized variant of ABII050) VHH: EVQLLESGGGLVQPGGSLRLSCAASGRTFNNYNMGWFRQAPGKGREFVAAVSRSGVSTYYADSVKGRFTISRDNSKNTVYLQMNSLRPEDTAVYYCGAAYRGTAINVRRSYSSWGQGTLVTVSS",IC50,[2],2.4 nM
"ABII003 (VHH, humanized variant of ABII002) VHH: EVQLLESGGGLVLPGGSLRLSCVHSGPTFRTDTMGWFRQAPGKGREFVAAVTWNSGRINYADSVKGRFTVSRDNTRNAAYLQMSGLKDEDTAVYYCTAHRFVVGGNRVEDWRYWGQGTLVTVSS",IC50,[1],2.1 nM
same,IC50,[2],2.1 nM
"ABII004 (VHH, humanized variant of ABII002) VHH: EVQLLESGGGLVQPGGSLRLSCVHSGPTFRTDTMGWFRQAPGKGREFVAAVTWNSGRINYADSVKGRFTVSRDNTRNAAYLQMSGLKDEDTAVYYCTAHRFVVGGNRVEDWRYWGQGTLVTVSS",IC50,[1],2.1 nM
same,IC50,[2],2.1 nM
"ABII005 (VHH, humanized variant of ABII002) VHH: EVQLLESGGGLVLPGGSLRLSCAHSGPTFRTDTMGWFRQAPGKGREFVAAVTWNSGRINYADSVKGRFTVSRDNTRNAAYLQMSGLKDEDTAVYYCTAHRFVVGGNRVEDWRYWGQGTLVTVSS",IC50,[1],3.3 nM
same,IC50,[2],3.3 nM
"ABII006 (VHH, humanized variant of ABII002) VHH: EVQLLESGGGLVLPGGSLRLSCVASGPTFRTDTMGWFRQAPGKGREFVAAVTWNSGRINYADSVKGRFTVSRDNTRNAAYLQMSGLKDEDTAVYYCTAHRFVVGGNRVEDWRYWGQGTLVTVSS",IC50,[1],80 nM
same,IC50,[2],80 nM
"ABII007 (VHH, humanized variant of ABII002) VHH: EVQLLESGGGLVLPGGSLRLSCVHSGPTFRTDTMGWFRQAPGKGREFVAAVTWNSGRINYADSVKGRFTISRDNTRNAAYLQMSGLKDEDTAVYYCTAHRFVVGGNRVEDWRYWGQGTLVTVSS",IC50,[1],1.6 nM
same,IC50,[2],1.6 nM
"ABII008 (VHH, humanized variant of ABII002) VHH: EVQLLESGGGLVLPGGSLRLSCVHSGPTFRTDTMGWFRQAPGKGREFVAAVTWNSGRINYADSVKGRFTVSRDNSRNAAYLQMSGLKDEDTAVYYCTAHRFVVGGNRVEDWRYWGQGTLVTVSS",IC50,[1],1.9 nM
same,IC50,[2],1.9 nM
"ABII009 (VHH, humanized variant of ABII002) VHH: EVQLLESGGGLVLPGGSLRLSCVHSGPTFRTDTMGWFRQAPGKGREFVAAVTWNSGRINYADSVKGRFTVSRDNTKNAAYLQMSGLKDEDTAVYYCTAHRFVVGGNRVEDWRYWGQGTLVTVSS",IC50,[1],1.7 nM
same,IC50,[2],1.7 nM
"ABII010 (VHH, humanized variant of ABII002) VHH: EVQLLESGGGLVLPGGSLRLSCVHSGPTFRTDTMGWFRQAPGKGREFVAAVTWNSGRINYADSVKGRFTVSRDNTRNTAYLQMSGLKDEDTAVYYCTAHRFVVGGNRVEDWRYWGQGTLVTVSS",IC50,[1],1.9 nM
same,IC50,[2],1.9 nM
"ABII011 (VHH, humanized variant of ABII002) VHH: EVQLLESGGGLVLPGGSLRLSCVHSGPTFRTDTMGWFRQAPGKGREFVAAVTWNSGRINYADSVKGRFTVSRDNTRNALYLQMSGLKDEDTAVYYCTAHRFVVGGNRVEDWRYWGQGTLVTVSS",IC50,[1],24 nM
same,IC50,[2],24 nM
"ABII012 (VHH, humanized variant of ABII002) VHH: EVQLLESGGGLVLPGGSLRLSCVHSGPTFRTDTMGWFRQAPGKGREFVAAVTWNSGRINYADSVKGRFTVSRDNTRNAAYLQMNGLKDEDTAVYYCTAHRFVVGGNRVEDWRYWGQGTLVTVSS",IC50,[1],1.5 nM
same,IC50,[2],1.5 nM
"ABII013 (VHH, humanized variant of ABII002) VHH: EVQLLESGGGLVLPGGSLRLSCVHSGPTFRTDTMGWFRQAPGKGREFVAAVTWNSGRINYADSVKGRFTVSRDNTRNAAYLQMSSLKDEDTAVYYCTAHRFVVGGNRVEDWRYWGQGTLVTVSS",IC50,[1],1.6 nM
same,IC50,[2],1.6 nM
"ABII037 (VHH, humanized variant of ABII002) VHH: EVQLLESGGGLVQPGGSLRLSCVHSGPTFRTDTMGWFRQAPGKGREFVAAVTWNSGRINYADSVKGRFTISRDNSKNTAYLQMNSLRAEDTAVYYCAAHRFVVGGNRVEDWRYWGQGTLVTVSS",IC50,[2],3.1 nM
